Source: publication PMC7835385

Key:
[1] = target: myosin-7a heavy chain (Drosophila), FLAG-tagged, co-expressed with light chains (Drosophila) (UniProt Q9V3Z6); test: co-purification (FLAG affinity chromatography) with SDS-PAGE densitometry; heavy chain and light chains co-expressed in Sf9; heavy chain captured by its FLAG tag; 150 mM NaCl, 2 mM ATP washes
[2] = target: skeletal muscle actin, filamentous (F-actin) (rabbit) (UniProt P68135)
[3] = target: full-length myosin-7a holoenzyme (Drosophila), FLAG-tagged (Drosophila) (UniProt Q9V3Z6); test: single-molecule mass photometry; 20 nM myosin-7a or M7BP alone, or 20 nM M7BP with 10 nM myosin-7a; 150 mM NaCl, 2 mM MgCl2, 0.1 mM EGTA, 10 mM MOPS, pH 7.2; about 24 C; no actin
[4] = target: GFP-myosin-7a holoenzyme (full-length, Drosophila) (Drosophila) (UniProt Q9V3Z6); test: BLI; Octet RED96; GFP-myosin-7a held by biotinylated GFP antibody on streptavidin sensors; 0-25 nM M7BP in solution; 150 mM NaCl, 2 mM MgCl2, 0.1 mM EGTA, 10 mM MOPS, 1% BSA, pH 7.2; 30 C; no actin
[5] = target: GFP-myosin-7a holoenzyme (full-length, Drosophila) (Drosophila) (UniProt Q9V3Z6); test: single-molecule TIRF motility assay; 20 nM myosin-7a with 20 nM M7BP on surface-immobilised phalloidin-labelled actin filaments; 150 mM KCl, 20 mM MOPS, 5 mM MgCl2, 0.1 mM EGTA, 2 mM ATP, pH 7.4; co-movement and fluorophore counting of moving puncta

## Drosophila calmodulin (from UniProt P62152 1-149) (natural protein)
[1]
  stoichiometric ratio of strongly bound calmodulin to ELC/Mlc-c on the heavy chain: 4

## M7BP (myosin-7a binding protein), protein isoform C of CG43340, full length (natural protein)
[2]
  decrease in actin gliding velocity over surface-bound myosin-7a after infusion of 500 nM M7BP, 150 mM KCl: 50%
[3]
  stoichiometry N: 1
[4]
  Kd: 6 nM

## M7BP-mCherry (natural protein)
[5]
  stoichiometry N: 1
